# According to the nanobody polyreactivity screen of Harvey et al. (2022):
# Experiment: yeast display, Sf9 membrane polyspecificity reagent, FACS + sequencing; frameworks hold sequencing errors
# In short: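 Nanobodies came from a synthetic yeast display library in Saccharomyces cerevisiae BJ5465, induced with galactose for 36–48 hours and stained for 1 hour at 4 °C with 10% biotinylated, detergent-solubilized Sf9 membrane reagent. Cells were enriched on streptavidin microbeads and then FACS-sorted, with low and high (top ~1%) gates set on anti-HA fluorescence for expression and streptavidin fluorescence for reagent binding. Each polyreactivity label reflects the gate a clone came from. Genes were amplified by colony PCR, sequenced by MiSeq 2 × 250 and filtered by CDR length.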
row,Sequence,polyreactivity (PSR sort gate)
1,QVQLVESGGGLVQAGGSLRLSCAASGSIFLINAMGWYRPAPGKERELVAAITWSGGRTYYADSVKGRFTISRDNAKNTVYLQMNSLKPEDTAVYYCATRKRRSRPPTYDYWGQGTQVTVSS,high polyreactivity
2,QVQLVESGGGLVQAGGSLRLSCAASGSIFLIYAMGWYRQAPGKERELVATINRGDNTYYADSVKGRFTISRDNAKNTVYLQMNSLKPEDTAVYYCAARAYDLGYAGYDYWGQGTQVTVSS,low polyreactivity
3,QVQLVESGGGLVQAGGSLRLSCAASGSIFLIYARGSYRQAPGKERELVAAISGRVGSTYYADSVKGRFTISRDNAINTVYLQMNSLKPEDTAVYYCAARNSYGNWRYYYWGQGTQVTVSS,high polyreactivity
4,QVQLVESGGGLVQAGGSLRLSCAASGSIFLKYVMGWYRQAPGKERELVAAISFRSGSTYYADSVKGRFTISRDNAKNTVYLQMNSLKPEDTAVYYCAADAWRSYGYRAYDYWGQGTQVTVSS,high polyreactivity
5,QVQLVESGGGLVQAGGSLRLSCAASGSIFLLYAMGWYSQAPGKVRELVAAISRSGDSTHYADSVKGRFTISRDNAKNTVYLQMNSLKPEDTAVYYCAADGYDPYGGLYDYWGQGTQVTVSS,low polyreactivity
6,QVQLVESGGGLVQAGGSLRLSCAASGSIFLQNAMGWYRQAPGKERELVAAITNGGSTNYADSVKGRFTISRDNAKHTVYLQLNSLKPEDTAVYYCAAYPLYTGSYDRGGYWGQGTQVTVSS,low polyreactivity
7,QVQLVESGGGLVQAGGSLRLSCAASGSIFLQNAMGWYRQAPGKERELVAAITNGGSTNYADSVKGRFTISRDNAKNTVYLQMNSLKPEDTAVYYCAAYPLYTGSYDRGGYWGQGTQVTVSS,low polyreactivity
8,QVQLVESGGGLVQAGGSLRLSCAASGSIFLRNAMGWSRQAPGKERELVAAISRSGGRTYYADSVKGRFTISRDNAKNTVYLQMNSLKPEDTAVYYCAADWADKYTGRYDYWGQGTQVTVSS,high polyreactivity
9,QVQLVESGGGLVQAGGSLRLSCAASGSIFLSNAMGWYRQAPGKERELVAAISRRGASTYYADSVKGRFTISRDNAKNTVYFQMNSLKPEDTAVYYCAALSYSAYGYNYWGQGTQVTVSS,high polyreactivity
10,QVQLVESGGGLVQAGGSLRLSCAASGSIFLTNVMGWYRQAPGKERELVAAISSGGNTYYADSVKGRFTISRDNAKNTVYLQMNSLKPEDTAVYYCAVRYRYDYWGQGTQVTVSS,high polyreactivity
11,QVQLVESGGGLVQAGGSLRLSCAASGSIFLTYTMGWYRQAPGKERELVAGISSRGGGTYYADSVKGRFTISRDNAKNTVYLQMNSLKPEDTAVYYCAAAIGYPHYWGRRKFYYWGQGTQVTVSS,low polyreactivity
12,QVQLVESGGGLVQAGGSLRLSCAASGSIFLVNAMGWYRQAPGERKELVAAISWSSGSTYYADSVKGRFTNSRDNAKNTVYLQMNSLKPEDTAVYYCAKRSSITYRYDYWGQGTQVTVSS,high polyreactivity
13,QVQLVESGGGLVQAGGSLRLSCAASGSIFLVYALGWYRQAPGKERELVATITRGGGTYYADSVKGRFTISGDNAKNTVYLQMNSLKPEDTAVSYCAYPLSRTWGNYLAWSYPRDDSWGQGTQVTVSS,high polyreactivity
14,QVQLVESGGGLVQAGGSLRLSCAASGSIFLVYAMGWYRQAPGKERELVAAIRWSGGSTYYADSVKGRFTISRDNAKNTVYLQMNSLKPEDTAVYYCNAGESYSVKGGPYDSDYWGQGTQVTVSS,low polyreactivity
15,QVQLVESGGGLVQAGGSLRLSCAASGSIFLWNAKGWYRQAPGKERELVAAISSGTSTNYADSVKGRFTISRDNAKNTVYLQMNSLKPEDTAVYYCAARGRKNQRRYGYWGQGTQVTVSS,low polyreactivity
16,QVQLVESGGGLVQAGGSLRLSCAASGSIFLYNAMGWYRQAPGKERELVADISWSGGSTYYADSVKGRFTISRDNAKNTVYLQMNSLKPEDTAVYYCNAVVYWFSTSYVYTYDYWGQGTQVTVSS,high polyreactivity
17,QVQLVESGGGLVQAGGSLRLSCAASGSIFLYNTMGWYRQAPGKERELVAAITSGGNTNYADSVKGRFTISRDNAKNTVYLQMHSLKPEDTAVYYCNVDLKAWLPDGGSVDYWGQGTQVTVSS,low polyreactivity
18,QVQLVESGGGLVQAGGSLRLSCAASGSIFLYNTMGWYRQAPGKERELVAAITYSGGSTYYADSVKGRFTISRDNAKNTVYLQMNSLKPEDTAVYYCAARRLPRKERKLYYWGQGTQVTVSS,high polyreactivity
19,QVQLVESGGGLVQAGGSLRLSCAASGSIFLYYAMGWYIQATGKERELVATITSGGRTSYADSVKGRFTISRDNAKNTVYLKMNSLKPEDTAVYYCAGRYGWFTPYDYWGQGTQVTVSS,high polyreactivity
20,QVQLVESGGGLVQAGGSLRLSCAASGSIFLYYAMGWYRQAPGKERELVAAITGGGGTNYADSVKGRFTISRDNAKNTVYLQMNSLKPEDTAVYYCAADPSGQFPYSYYNYDYDYWGQGTQVTVSS,low polyreactivity
21,QVQLVESGGGLVQAGGSLRLSCAASGSIFLYYTMGWYRQAPGKERELVAAITWGGGTTYYADSVKGRFTISRDNAKNTVYLQMNSLKPEDTAVYYCAAEGSYPRMDYWGQGTQVTVSS,low polyreactivity
22,QVQLVESGGGLVQAGGSLRLSCAASGSIFLYYTMGWYRQAPGKEREMVAAITSGSSTNYADSVKGRFTISRDNAKNTVYLQMNSLKPEDTAVYYCATQYTLSYPSIDFDYWGQGTQVNVSS,low polyreactivity

row,Sequence,polyreactivity (PSR sort gate)
1,QVQLVESGGGLVQAGGSLRLSCAASGSIFLYYTMGWYRQEPGKERELVAAITWSGASTYYADSVKGRFTISRDNAKNTVYLQMNSLKPEDTAVYYCATRYRYRYWGQGTQVTVSS,high polyreactivity
2,QVQLVESGGGLVQAGGSLRLSCAASGSIFNANAMGWYRQAPGKERELVAGIRSGSSTNYADSEKGRFTISRDNAKNTVYLQMNSLKPEDTAVYYCATEGYWVYGFDDEYWGQGTQVTVSS,low polyreactivity
3,QVQLVESGGGLVQAGGSLRLSCAASGSIFNAYDMGWYRQAPGKERELVAGISSSDSTYYADSVKGRFTISRDNAKNTVYLQMNSLKPEDTAVYYCAADPVFAAAYIHLYGIYDSWGQGTQVTVSS,low polyreactivity
4,QVQLVESGGGLVQAGGSLRLSCAASGSIFNDYAMGWYRQAPGKERELVAAITSSDGRTFYADSVKGRFTISRDNAKNTVYLQMNSLKPEDTAVYYCAAEWTSRYSTYEYWGQGTQVTVSS,low polyreactivity
5,QVQLVESGGGLVQAGGSLRLSCAASGSIFNENPMGSYRQAPGKERELVAVITHRTGSTYYADSVKGRFTISRDNAKYTFYLQLTSLTPEDTAVYYCATRTRRNRYRGGEYDYWGQGTQVTVSS,low polyreactivity
6,QVQLVESGGGLVQAGGSLRLSCAASGSIFNGNAMGWYRQAPGKERELVARITSGSSTYYADSVKGRFTISRDNAKNTVYLQMNSLKPEDTAVYYCAAVYGRYISYRWRSLYDYWGQGTQVTVSS,high polyreactivity
7,QVQLVESGGGLVQAGGSLRLSCAASGSIFNGYDMGWYRQAPGKERELVAAISLSGDSTYYADSVKGRFTISRDYAKKTVYLQMNSLKPEDTAVYYCAAADYFRSYWGQGTQVTVSS,low polyreactivity
8,QVQLVESGGGLVQAGGSLRLSCAASGSIFNINAMGWYRQAPGKERELVAAISKRGGSTYYADSVKGRFTISRDNAKNTVYLQLNSLKPEDTAVYYCAADLTGVDYDYWGQGTQVTVSS,high polyreactivity
9,QVQLVESGGGLVQAGGSLRLSCAASGSIFNLYAMGWYRQAPGKERELVAAIRWSGGSTYYADSVKGRFTISRDNAKNTVYLKMKSMKPEDTAVYYCNAEWKSYRVPKFEYWGQGTQVTVSS,low polyreactivity
10,QVQLVESGGGLVQAGGSLRLSCAASGSIFNLYAMGWYRQAPGKERELVAGIRWSGGRTYYADSVKGRFTISRDNAKNTVYLQMNSLKPEDTAVYYCNAGGYLSWWNDYDYWGQGTQVTVSS,high polyreactivity
11,QVQLVESGGGLVQAGGSLRLSCAASGSIFNLYAMGWYRQAPGKERELVATITWSGGSTYYADSVKGRFTISRDNAKNTVYLQMNSLKPEDTAVYYCAATALEWYPAVYNQYYYWGQGTQVTVSS,low polyreactivity
12,QVQLVESGGGLVQAGGSLRLSCAASGSIFNPYVMGWYRQAPGKERELVAAISSSGGRTYYADSVKGRFTLSRDNAKNTVDFQMNSLKPEDTAVYYCAAKPRQGYDYWGQGTQVTVSS,high polyreactivity
13,QVQLVESGGGLVQAGGSLRLSCAASGSIFNRNAMGWYRQAPGKERELVATITRNGGRTYYADSVKGRFTISRDNAKNTVYLQMNSLKPEDTAVYYCNAVRQRLRPGNLFDLDYWGQGTQVTVSS,low polyreactivity
14,QVQLVESGGGLVQAGGSLRLSCAASGSIFNRYSMGWYRQEPGKERELVASIRGTGSTYYADSVKGRFTISRDNAKNTVYLQMNSLKPEDTAVDYCAARPGYLYSKYNYWGQGTQVTVSS,high polyreactivity
15,QVQLVESGGGLVQAGGSLRLSCAASGSIFNSYAMGWYRQAPGKERELVAAISSGGGRTYYAVSVKGRFKISRDNAKNTVYLQMNSLKPEDTAVYYCAKYYRAFIRDYNYWGQGTQVTVSS,high polyreactivity
16,QVQLVESGGGLVQAGGSLRLSCAASGSIFNTYAMGWYRQAPGKERELVAAITWSGGSTYYADSVKGRFTISRDNAKNTVYLQMNSLKPEDTAVYYCAARQRRQSYWGQGTQVTVSS,high polyreactivity
17,QVQLVESGGGLVQAGGSLRLSCAASGSIFNVYAMGWYRQAPGKERELVAAISDGDGSTFYADSVKGRFTISRDNAKNTVYLQMNSLKPEDTAVYYCAKDYRWDRKFDYWGQGTQVTVSS,low polyreactivity
18,QVQLVESGGGLVQAGGSLRLSCAASGSIFNYNAMGWYRPAPGKERELVAALNSGGSTNYADSVKGRFTISRDNAKNTVYLQMNSLKPEDPAVYYCAADNYSQGVPYDYWGQGTQVTVSS,low polyreactivity
19,QVQLVESGGGLVQAGGSLRLSCAASGSIFNYTMGWYRQGPAQERQLVAVISRSGGRTYYADSVKGRFTISRDNAKNTVYLQMNSLKPEDTAVYYCATDGHNGYYGRYDYWGHGTQVTVSS,high polyreactivity
20,QVQLVESGGGLVQAGGSLRLSCAASGSIFNYYAMGCYRQAPGKERELVAAIETTGGSTYYADSVKGRFTNSRDNAKNTVYLQMNSLKPEDTAVYYCAATWGKPWYYEYDYWGQGTQVTVSS,low polyreactivity
21,QVQLVESGGGLVQAGGSLRLSCAASGSIFNYYAMGWNRQAPVKETEFVADISGSGSSTYYADSVKGRFTISRDNAKNTVYLQMNSLKPEDTAVYYCIAEYYWGVGYYPYSDYGYWGQGTQVTVSS,low polyreactivity
